{
  "source": "patent US11666664B2",
  "about": "“Self assembling molecules for targeted drug delivery” (The General Hospital Corporation, priority 2015, dated 2023)",
  "assay": "Isoelectric point of expressed clathrin heavy chain preparation",
  "type": "physicochemical",
  "conditions": "recombinant human clathrin isoform 2 heavy chain with 6His tag from E. coli",
  "excerpt": "The preparation yielded a protein with the following characteristics: […]",
  "data": [
    {"substance": "PE1130119-1: Clathrin human isoform 2 heavy chain expressed in E. coli, soluble protein with 6His tag", "values": [
      {"measurement": "Isoelectric Point", "result": 5.67}
    ]}
  ]
}
